Laboratory results as given in publication PMC6191436.

Target: FLAG-cyclin B1 (UniProt P14635)
Test: co-IP; MCF7 cells transfected with Myc-BRCA1-Δ11 and FLAG-cyclin B1, synchronised (aphidicolin 0.3 μM 24 h, release 8 h, nocodazole 100 ng/mL 24 h, release 2 h), without or with irradiation (10 Gy); anti-FLAG antibody-conjugated agarose; Western blot with anti-Myc

Chain of Myc-BRCA1-Δ11 (P38398 whole entry, stated change not applied): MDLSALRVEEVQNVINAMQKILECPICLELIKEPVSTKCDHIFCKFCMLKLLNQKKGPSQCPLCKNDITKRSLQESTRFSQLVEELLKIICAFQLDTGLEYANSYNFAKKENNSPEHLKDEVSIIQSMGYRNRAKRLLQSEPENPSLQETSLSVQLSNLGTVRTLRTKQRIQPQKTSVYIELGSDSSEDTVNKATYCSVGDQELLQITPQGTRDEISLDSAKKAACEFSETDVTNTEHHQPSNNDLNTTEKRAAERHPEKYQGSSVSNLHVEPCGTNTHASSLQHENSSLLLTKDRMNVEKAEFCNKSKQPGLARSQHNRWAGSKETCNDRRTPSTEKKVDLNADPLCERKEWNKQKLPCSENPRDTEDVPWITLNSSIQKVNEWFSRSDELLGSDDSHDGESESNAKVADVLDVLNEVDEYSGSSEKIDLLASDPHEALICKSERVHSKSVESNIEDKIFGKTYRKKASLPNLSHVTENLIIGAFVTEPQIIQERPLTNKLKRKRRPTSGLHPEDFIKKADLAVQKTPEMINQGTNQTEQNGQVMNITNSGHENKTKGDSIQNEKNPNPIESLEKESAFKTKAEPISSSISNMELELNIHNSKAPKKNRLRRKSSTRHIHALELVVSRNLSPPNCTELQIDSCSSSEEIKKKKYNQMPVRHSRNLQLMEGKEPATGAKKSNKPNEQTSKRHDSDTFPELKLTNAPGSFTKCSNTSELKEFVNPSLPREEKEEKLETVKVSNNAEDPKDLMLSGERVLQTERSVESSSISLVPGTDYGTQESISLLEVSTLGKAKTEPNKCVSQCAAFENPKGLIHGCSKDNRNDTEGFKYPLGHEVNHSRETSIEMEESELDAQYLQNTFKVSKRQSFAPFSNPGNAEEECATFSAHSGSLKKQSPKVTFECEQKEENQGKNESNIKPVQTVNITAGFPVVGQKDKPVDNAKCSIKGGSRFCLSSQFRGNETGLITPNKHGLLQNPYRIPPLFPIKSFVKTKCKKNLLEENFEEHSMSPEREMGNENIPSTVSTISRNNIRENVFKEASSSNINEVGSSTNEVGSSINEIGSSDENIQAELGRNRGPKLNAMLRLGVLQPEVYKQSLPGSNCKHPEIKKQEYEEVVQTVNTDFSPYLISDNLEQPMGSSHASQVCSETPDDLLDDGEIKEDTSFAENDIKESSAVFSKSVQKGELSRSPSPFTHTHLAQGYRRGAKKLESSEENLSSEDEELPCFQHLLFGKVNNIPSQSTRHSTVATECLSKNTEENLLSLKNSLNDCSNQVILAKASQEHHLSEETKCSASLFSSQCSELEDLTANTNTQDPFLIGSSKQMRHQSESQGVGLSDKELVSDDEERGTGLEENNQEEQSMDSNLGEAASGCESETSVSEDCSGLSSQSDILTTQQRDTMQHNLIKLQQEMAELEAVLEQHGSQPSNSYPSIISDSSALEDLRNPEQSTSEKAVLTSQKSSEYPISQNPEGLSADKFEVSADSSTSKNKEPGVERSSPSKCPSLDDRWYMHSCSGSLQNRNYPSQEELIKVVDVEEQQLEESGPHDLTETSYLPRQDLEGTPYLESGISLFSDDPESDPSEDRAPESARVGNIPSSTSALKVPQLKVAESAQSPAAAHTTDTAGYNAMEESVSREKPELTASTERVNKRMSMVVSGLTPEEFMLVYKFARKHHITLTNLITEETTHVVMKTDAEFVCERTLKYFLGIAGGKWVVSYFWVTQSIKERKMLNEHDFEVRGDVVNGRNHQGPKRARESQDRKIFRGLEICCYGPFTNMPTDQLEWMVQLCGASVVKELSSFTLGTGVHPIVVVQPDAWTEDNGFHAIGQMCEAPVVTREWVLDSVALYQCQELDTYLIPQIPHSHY
Chain of FLAG-cyclin B1 (P14635 whole entry): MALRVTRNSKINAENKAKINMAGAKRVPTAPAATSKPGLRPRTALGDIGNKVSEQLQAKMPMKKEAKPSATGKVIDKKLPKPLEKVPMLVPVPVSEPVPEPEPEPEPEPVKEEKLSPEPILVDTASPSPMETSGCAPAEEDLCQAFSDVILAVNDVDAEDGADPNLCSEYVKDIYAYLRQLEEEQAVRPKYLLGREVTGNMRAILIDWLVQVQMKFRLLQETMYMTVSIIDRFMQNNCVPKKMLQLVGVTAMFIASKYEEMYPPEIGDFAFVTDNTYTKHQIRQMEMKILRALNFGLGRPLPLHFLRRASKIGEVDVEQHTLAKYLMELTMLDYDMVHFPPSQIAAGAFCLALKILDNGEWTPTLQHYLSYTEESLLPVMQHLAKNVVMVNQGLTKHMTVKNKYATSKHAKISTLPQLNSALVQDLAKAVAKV

Substance: Myc-BRCA1-Δ11 (from UniProt P38398-5 1-721) (natural protein)
- interaction upon irradiation relative to no irradiation (nocodazole-treated cells): 214%
